For 94 variants, protein stability index results are on record in the supplement of paper PMC10567573.

The labels stand for the following.
B1: INTS4 (parent)
chain: YSSGEFSSGRKWGDDAPKEEVDTG
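Further: lentivirally expressed fusions sorted by FACS into six bins by GFP to DsRed ratio, PSI derived from sequencing read proportions per bin multiplied by bin number.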

The variants in this series derive from B1. The series can be described thus: protein stability index of a GFP-peptide fusion (GPS, HEK-293T) (PSI 1-6); higher = more stable. The conditions noted are these: c terminus: a fixed tail appended.
Consider YSSGEFSSGRKWGDDAPKCEVDTG [E19C], for which the protein stability index was determined as 2.37.
The figure for YSSGEFSSGRKWGDDAPKFEVDTG [E19F] is 2.97; for YSSGEFSSGRKWGDDAPKREVDTG [E19R] it is 1.75.
Take YSSGEPSSGRKWGDDAPKEEVDTG [F6P]: the protein stability index is 5.56.
The figure for YSSGEKSSGRKWGDDAPKEEVDTG [F6K] is 4.65; for YSSGEYSSGRKWGDDAPKEEVDTG [F6Y] it is 4.13.
The result for YSSGEVSSGRKWGDDAPKEEVDTG [F6V] reads 4.99; that for YSSGEQSSGRKWGDDAPKEEVDTG [F6Q], 4.96; that for YSSGEISSGRKWGDDAPKEEVDTG [F6I], 4.67.
Consider YSSGEFSSGNKWGDDAPKEEVDTG [R10N], for which the protein stability index was determined as 2.63.
The result for YSSGEFSSGPKWGDDAPKEEVDTG [R10P] reads 2.3; that for YSSGEFSSGGKWGDDAPKEEVDTG [R10G], 2.93.
The figure for YSSGEFSSGMKWGDDAPKEEVDTG [R10M] is 1.52; for YSSGEFSSGTKWGDDAPKEEVDTG [R10T] it is 2.8.
The result for YSSGEFSSGLKWGDDAPKEEVDTG [R10L] reads 2.
For the variant YSSGEFSSGFKWGDDAPKEEVDTG [R10F], the protein stability index was determined as 1.74.
In the case of YSSGEFSSGCKWGDDAPKEEVDTG [R10C], the protein stability index came to 2.47.
As to YSSGEFSSGYKWGDDAPKEEVDTG [R10Y], the protein stability index came to 2.41.
On to YSSGEFSSGSKWGDDAPKEEVDTG [R10S], for which the protein stability index was determined as 3.19.
The result for YSSGEFSSGVKWGDDAPKEEVDTG [R10V] reads 2.5; that for YSSGEFSLGRKWGDDAPKEEVDTG [S8L], 3.21; that for YSSGEFSKGRKWGDDAPKEEVDTG [S8K], 2.19.
On to YSSGEFSEGRKWGDDAPKEEVDTG [S8E], for which the protein stability index worked out at 3.56.
The result for YSSGEFSNGRKWGDDAPKEEVDTG [S8N] reads 2.68; that for YSSGEFSYGRKWGDDAPKEEVDTG [S8Y], 2.59; that for YSSGEFSFGRKWGDDAPKEEVDTG [S8F], 2.48.
The result for YSSGEFSSGRKWYDDAPKEEVDTG [G13Y] reads 2.81.
With YSSGEFSSGRKWFDDAPKEEVDTG [G13F], the protein stability index is 2.65.
As for YSSGEFSSGRKWWDDAPKEEVDTG [G13W], the protein stability index is 2.44.
With YSSGEFSSGRKWLDDAPKEEVDTG [G13L], the protein stability index amounted to 2.35.
The figure for YSSGEFSSGRKWPDDAPKEEVDTG [G13P] is 2.6.
Consider YSSGEFSSGRKWQDDAPKEEVDTG [G13Q], for which the protein stability index is 3.38.
The result for YSSGEFSSGRKWEDDAPKEEVDTG [G13E] reads 3.02.
The figure for YSSGEFSSGRKWNDDAPKEEVDTG [G13N] is 3.13.
On to YSSGEFSSGRKWGDDAPKEEVQTG [D22Q], for which the protein stability index came out at 2.71.
The figure for YSSGEFSSGRKWGDDAPKEEVITG [D22I] is 2.66; for YSSGEFSSGRKWGDDAPKEEVHTG [D22H] it is 2.48; for YSSGEFSSGRKWGDDAPKEEVTTG [D22T] it is 2.34.
The result for YSSGEFSSGRKWGDDAPKEEVYTG [D22Y] reads 2.02.
On to YSSGEFSSGRKWGDDAPKEEVETG [D22E], for which the protein stability index worked out at 2.72.
The figure for YSSGEFSSGRKWGDDAPKEEVRTG [D22R] is 2.73; for YSWGEFSSGRKWGDDAPKEEVDTG [S3W] it is 2.89; for YSAGEFSSGRKWGDDAPKEEVDTG [S3A] it is 4.89.
The figure for YSQGEFSSGRKWGDDAPKEEVDTG [S3Q] is 3.86.
For the variant YSIGEFSSGRKWGDDAPKEEVDTG [S3I], the protein stability index stood at 4.01.
The figure for YSGGEFSSGRKWGDDAPKEEVDTG [S3G] is 3.5; for YSNGEFSSGRKWGDDAPKEEVDTG [S3N] it is 4.08.
YSRGEFSSGRKWGDDAPKEEVDTG [S3R]: the protein stability index was determined as 4.47.
The result for YSMGEFSSGRKWGDDAPKEEVDTG [S3M] reads 3.91.
The result for YSLGEFSSGRKWGDDAPKEEVDTG [S3L] reads 4.59.
The result for YSYGEFSSGRKWGDDAPKEEVDTG [S3Y] reads 4.13.
On to YSSGEFRSGRKWGDDAPKEEVDTG [S7R], for which the protein stability index is 1.8.
The figure for YSSGEFHSGRKWGDDAPKEEVDTG [S7H] is 1.92.
The figure for YSSGEFMSGRKWGDDAPKEEVDTG [S7M] is 2.17; for YSSGEFCSGRKWGDDAPKEEVDTG [S7C] it is 2.32; for YSSGEFYSGRKWGDDAPKEEVDTG [S7Y] it is 2.52.
The figure for YSSGEFGSGRKWGDDAPKEEVDTG [S7G] is 2.75; for YSSGEFPSGRKWGDDAPKEEVDTG [S7P] it is 1.67.
Regarding YSSGEFDSGRKWGDDAPKEEVDTG [S7D], the protein stability index stood at 3.83.
With YSSGEFKSGRKWGDDAPKEEVDTG [S7K], the protein stability index was determined as 3.45.
Regarding YSSGEFTSGRKWGDDAPKEEVDTG [S7T], the protein stability index was determined as 3.02.
Turning to YSSGEFSSGRVWGDDAPKEEVDTG [K11V], the protein stability index came to 2.39.
As for YSSGEFSSGRRWGDDAPKEEVDTG [K11R], the protein stability index was 1.97.
For the variant YSSGEFSSGRFWGDDAPKEEVDTG [K11F], the protein stability index was determined as 1.9.
The result for YSSGEFSSGRTWGDDAPKEEVDTG [K11T] reads 2.31.
The figure for YSSGEFSSGRSWGDDAPKEEVDTG [K11S] is 3.02; for YSSGEFSSGRMWGDDAPKEEVDTG [K11M] it is 2.62; for YSSGEFSSGRWWGDDAPKEEVDTG [K11W] it is 1.94.
The figure for YSSGEFSSGRLWGDDAPKEEVDTG [K11L] is 1.91.
Turning to YSSGEFSSGREWGDDAPKEEVDTG [K11E], the protein stability index came out at 3.25.
YSSGEFSSGRKLGDDAPKEEVDTG [W12L]: the protein stability index is 3.24.
The result for YSSGEFSSGRKFGDDAPKEEVDTG [W12F] reads 2.96; that for YSSGEFSSGRKRGDDAPKEEVDTG [W12R], 2.86; that for YSSGEFSSGRKGGDDAPKEEVDTG [W12G], 3.11.
For the variant YSSGEFSSGRKPGDDAPKEEVDTG [W12P], the protein stability index worked out at 2.92.
The result for YSSGEFSSGRKDGDDAPKEEVDTG [W12D] reads 3.21; that for YSSGEFSSGRKKGDDAPKEEVDTG [W12K], 2.94.
On to YSSGEFSSGRKTGDDAPKEEVDTG [W12T], for which the protein stability index amounted to 3.08.
The result for YSSGEFSSGRKYGDDAPKEEVDTG [W12Y] reads 2.57; that for YSSGLFSSGRKWGDDAPKEEVDTG [E5L], 2.11; that for YSSGFFSSGRKWGDDAPKEEVDTG [E5F], 1.76.
The result for YSSGRFSSGRKWGDDAPKEEVDTG [E5R] reads 2.15; that for YSSGNFSSGRKWGDDAPKEEVDTG [E5N], 3.27.
On to YSSGTFSSGRKWGDDAPKEEVDTG [E5T], for which the protein stability index was 3.55.
The figure for YSSGAFSSGRKWGDDAPKEEVDTG [E5A] is 2.75; for YSSGSFSSGRKWGDDAPKEEVDTG [E5S] it is 3.07; for YSSGQFSSGRKWGDDAPKEEVDTG [E5Q] it is 2.14.
For the variant YSSCEFSSGRKWGDDAPKEEVDTG [G4C], the protein stability index stood at 3.61.
The figure for YSSAEFSSGRKWGDDAPKEEVDTG [G4A] is 3.56.
On to YSSPEFSSGRKWGDDAPKEEVDTG [G4P], for which the protein stability index amounted to 3.11.
Turning to YSSWEFSSGRKWGDDAPKEEVDTG [G4W], the protein stability index worked out at 2.43.
Regarding YSSREFSSGRKWGDDAPKEEVDTG [G4R], the protein stability index worked out at 2.22.
The result for YSSMEFSSGRKWGDDAPKEEVDTG [G4M] reads 3.75.
The figure for YSSNEFSSGRKWGDDAPKEEVDTG [G4N] is 4.01.
